Results on 3 substances are retold here after PMC10588329.

pKd: −log10 of the molar value.

The target of assay [1] is CaMKII^L308BzF (human) (UniProt Q9UQM7). In words: cross-linking.
The target is the same in assay [2]. In words: mass photometry.
In assay [3] the target is Human wild-type CaMKII α (CaMKII^WT) (human) (UniProt Q9UQM7). As to the kind of experiment: mass photometry.
Assay [4] has as its target CaMKII^L308BzF (human) (UniProt Q9UQM7). As to the kind of experiment: SEC.

Sequence of UniProt Q9UQM7 (Q9UQM7 6-478): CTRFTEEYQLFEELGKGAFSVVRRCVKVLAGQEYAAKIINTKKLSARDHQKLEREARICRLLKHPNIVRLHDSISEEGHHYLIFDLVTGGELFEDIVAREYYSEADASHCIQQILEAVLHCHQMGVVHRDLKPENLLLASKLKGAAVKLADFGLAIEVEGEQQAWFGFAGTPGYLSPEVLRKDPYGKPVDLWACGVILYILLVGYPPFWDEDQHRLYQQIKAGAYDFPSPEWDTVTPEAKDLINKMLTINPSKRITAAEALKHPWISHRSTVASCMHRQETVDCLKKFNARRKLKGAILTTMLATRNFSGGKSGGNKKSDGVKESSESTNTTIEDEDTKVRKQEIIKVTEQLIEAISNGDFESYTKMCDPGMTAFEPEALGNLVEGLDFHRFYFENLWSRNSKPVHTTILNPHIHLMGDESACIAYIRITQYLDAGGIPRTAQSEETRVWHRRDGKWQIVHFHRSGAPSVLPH

In the assay with CaMKII^L308BzF (human) [1], “His-tagged Calmodulin (Calbiochem) (from UniProt P0DP23 1-149) (natural protein)” gave a negative logarithm of the Kd (pKd) of 5.60. The stoichiometry N (Calmodulin per CaMKII dodecamer) in the assay with CaMKII^L308BzF (human) [2] came out at 12.
Regarding “Human Calmodulin (self-made) (from UniProt P0DP23 1-149) (natural protein)”, in assay [3], the stoichiometry N (Calmodulin per CaMKII dodecamer) was determined as 5 and the stoichiometry N (Calmodulin per CaMKII holoenzyme) is 6.
Regarding “CaMKII^L308BzF (from UniProt Q9UQM7 6-478) (enzyme)”, the stoichiometry N with CaMKII^L308BzF (human) [4] and with CaMKII^L308BzF (human) [2] was 12 subunits each time.
